In article PMC12691639:

Target: K62-HA (K62 killer toxin with a C-terminal hemagglutinin tag), expressed by S. cerevisiae (Saccharomyces paradoxus)

K62-HA (K62 killer toxin with a C-terminal hemagglutinin tag), expressed by S. cerevisiae (natural protein)
stoichiometry N: 2
